# Measured values taken from paper PMC314469, “Protein Interaction Networks by Proteome Peptide Scanning” (PLoS Biology, 2004).
# T1: Boi1 SH3 (BOI1_YEAST), P38041
# T1 chain: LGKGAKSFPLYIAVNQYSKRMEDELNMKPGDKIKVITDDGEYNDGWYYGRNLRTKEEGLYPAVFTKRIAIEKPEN
# T2: Boi2 SH3 (BOI2_YEAST), P39969
# T2 chain: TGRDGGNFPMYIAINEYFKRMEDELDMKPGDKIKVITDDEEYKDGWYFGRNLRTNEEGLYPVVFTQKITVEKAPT
# T3: Rvs167 SH3 (RV167_YEAST), P39743
# T3 chain: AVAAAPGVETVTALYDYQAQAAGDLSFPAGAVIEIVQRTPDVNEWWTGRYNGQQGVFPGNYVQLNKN
# T4: Yfr024 SH3 (LSB3_YEAST), P43603
# T4 chain: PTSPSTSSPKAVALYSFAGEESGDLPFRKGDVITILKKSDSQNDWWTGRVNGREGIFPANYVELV
# T5: Yhr016c SH3 (YSC84_YEAST), P32793
# T5 chain: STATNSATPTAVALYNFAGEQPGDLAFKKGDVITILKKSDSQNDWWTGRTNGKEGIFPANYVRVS
# Target: T1, Boi1 SH3 (BOI1_YEAST), P38041
# Assay: SPOT array
row,Binder,"normalised SPOT signal, Boehringer light units (BLU); mean over the file's lines of this peptide"
1,KPDPESPSKLRHYE [YBL101C 851-864],69.8
2,KWEPSTPQRKGPIL [YLR460C 166-179],1870
3,KNFPTLPSKINSRH [YLL015W 63-76],244
4,KMTPSTPVRSISPI [YJR092W 851-864],181
5,KRTPKIPEKDVKSD [YDR026C 223-236],151
6,KTVPQSPKKPLSLL [YOR058C 193-206],101
7,KYDPDNPNKDKLGT [YBR235W 52-65],146
8,KWEPSTPQRNGPIL [YCR102C 158-171],143
9,KNLPLNPSKKLEGK [YDL027C 313-326],309
10,KSFPPPPLKPGQKT [YBR108W 84-97],112
11,KPKPPKPIKYHFED [YMR044W 286-299],154
12,KSKPKVPAKNPELE [YNL106C 1157-1170],166

# The next lines start with the values.
row,"normalised SPOT signal, Boehringer light units (BLU); mean over the file's lines of this peptide",Binder
1,1140,KSVPIPPRKNATLD [YJR113C 102-115]
2,180,KNSPLAPIKKNVEL [YLL021W 1085-1098]
3,153,KTKPTPPPKPSHLK [YNL020C 606-619]
4,46,KTKPSIPPKKVELN [YPR171W 354-367]
5,285,KRPPTAPQRKISLP [YPR171W 469-482]
6,20000,KLPPRLPHRAAQRR [YIR018W 29-42]
7,239,KLRPDLPVKNFVVK [YFR030W 641-654]
8,2120,KNLPTIPIRLSGID [YGL085W 143-156]
9,112,KMFPFNPAKIKKDD [YLR115W 535-548]
10,117,KSSPWSPYKVEKVL [YBR156C 161-174]

# Target: T2, Boi2 SH3 (BOI2_YEAST), P39969
# Assay: SPOT array
row,Binder,"normalised SPOT signal, Boehringer light units (BLU); mean over the file's lines of this peptide"
1,KPDPESPSKLRHYE [YBL101C 851-864],58.5
2,KWEPSTPQRKGPIL [YLR460C 166-179],43
3,KNFPTLPSKINSRH [YLL015W 63-76],25.8
4,KMTPSTPVRSISPI [YJR092W 851-864],71.2
5,KRTPKIPEKDVKSD [YDR026C 223-236],47.6
6,KTVPQSPKKPLSLL [YOR058C 193-206],53.9
7,KYDPDNPNKDKLGT [YBR235W 52-65],66.7
8,KWEPSTPQRNGPIL [YCR102C 158-171],31.6
9,KNLPLNPSKKLEGK [YDL027C 313-326],54.4
10,KSFPPPPLKPGQKT [YBR108W 84-97],183
11,KPKPPKPIKYHFED [YMR044W 286-299],52.1
12,KSKPKVPAKNPELE [YNL106C 1157-1170],46

# The remaining lines, values ahead:
row,"normalised SPOT signal, Boehringer light units (BLU); mean over the file's lines of this peptide",Binder
1,146,KSVPIPPRKNATLD [YJR113C 102-115]
2,33.5,KNSPLAPIKKNVEL [YLL021W 1085-1098]
3,71.3,KTKPTPPPKPSHLK [YNL020C 606-619]
4,34.8,KTKPSIPPKKVELN [YPR171W 354-367]
5,51.3,KRPPTAPQRKISLP [YPR171W 469-482]
6,219,KLPPRLPHRAAQRR [YIR018W 29-42]
7,15.3,KLRPDLPVKNFVVK [YFR030W 641-654]
8,45.2,KNLPTIPIRLSGID [YGL085W 143-156]
9,343,KMFPFNPAKIKKDD [YLR115W 535-548]
10,122,KSSPWSPYKVEKVL [YBR156C 161-174]

# Target: T3, Rvs167 SH3 (RV167_YEAST), P39743
# Assay: SPOT array
row,Binder,"normalised SPOT signal, Boehringer light units (BLU); mean over the file's lines of this peptide"
1,KPDPESPSKLRHYE [YBL101C 851-864],22.9
2,KWEPSTPQRKGPIL [YLR460C 166-179],51.1
3,KNFPTLPSKINSRH [YLL015W 63-76],35.2
4,KMTPSTPVRSISPI [YJR092W 851-864],280
5,KRTPKIPEKDVKSD [YDR026C 223-236],242
6,KTVPQSPKKPLSLL [YOR058C 193-206],17.8
7,KYDPDNPNKDKLGT [YBR235W 52-65],48.2
8,KWEPSTPQRNGPIL [YCR102C 158-171],31.1
9,KNLPLNPSKKLEGK [YDL027C 313-326],67.9
10,KSFPPPPLKPGQKT [YBR108W 84-97],57.7
11,KPKPPKPIKYHFED [YMR044W 286-299],6.8
12,KSKPKVPAKNPELE [YNL106C 1157-1170],50.8

# Other lines, results leading:
row,"normalised SPOT signal, Boehringer light units (BLU); mean over the file's lines of this peptide",Binder
1,12100,KSVPIPPRKNATLD [YJR113C 102-115]
2,26.7,KNSPLAPIKKNVEL [YLL021W 1085-1098]
3,8.2,KTKPTPPPKPSHLK [YNL020C 606-619]
4,27.4,KTKPSIPPKKVELN [YPR171W 354-367]
5,605,KRPPTAPQRKISLP [YPR171W 469-482]
6,11100,KLPPRLPHRAAQRR [YIR018W 29-42]
7,86.7,KLRPDLPVKNFVVK [YFR030W 641-654]
8,29100,KNLPTIPIRLSGID [YGL085W 143-156]
9,425,KMFPFNPAKIKKDD [YLR115W 535-548]
10,156,KSSPWSPYKVEKVL [YBR156C 161-174]

# Target: T4, Yfr024 SH3 (LSB3_YEAST), P43603
# Assay: SPOT array
row,Binder,"normalised SPOT signal, Boehringer light units (BLU); mean over the file's lines of this peptide"
1,KPDPESPSKLRHYE [YBL101C 851-864],41.3
2,KWEPSTPQRKGPIL [YLR460C 166-179],2430
3,KNFPTLPSKINSRH [YLL015W 63-76],9910
4,KMTPSTPVRSISPI [YJR092W 851-864],13400
5,KRTPKIPEKDVKSD [YDR026C 223-236],342
6,KTVPQSPKKPLSLL [YOR058C 193-206],280
7,KYDPDNPNKDKLGT [YBR235W 52-65],20.9
8,KWEPSTPQRNGPIL [YCR102C 158-171],3400
9,KNLPLNPSKKLEGK [YDL027C 313-326],98.6
10,KSFPPPPLKPGQKT [YBR108W 84-97],220
11,KPKPPKPIKYHFED [YMR044W 286-299],249
12,KSKPKVPAKNPELE [YNL106C 1157-1170],396

# More lines, now with the values ahead:
row,"normalised SPOT signal, Boehringer light units (BLU); mean over the file's lines of this peptide",Binder
1,25100,KSVPIPPRKNATLD [YJR113C 102-115]
2,252,KNSPLAPIKKNVEL [YLL021W 1085-1098]
3,16700,KTKPTPPPKPSHLK [YNL020C 606-619]
4,1930,KTKPSIPPKKVELN [YPR171W 354-367]
5,8630,KRPPTAPQRKISLP [YPR171W 469-482]
6,30600,KLPPRLPHRAAQRR [YIR018W 29-42]
7,10700,KLRPDLPVKNFVVK [YFR030W 641-654]
8,10800,KNLPTIPIRLSGID [YGL085W 143-156]
9,2490,KMFPFNPAKIKKDD [YLR115W 535-548]
10,253,KSSPWSPYKVEKVL [YBR156C 161-174]

# Target: T5, Yhr016c SH3 (YSC84_YEAST), P32793
# Assay: SPOT array
row,Binder,"normalised SPOT signal, Boehringer light units (BLU); mean over the file's lines of this peptide"
1,KPDPESPSKLRHYE [YBL101C 851-864],241
2,KWEPSTPQRKGPIL [YLR460C 166-179],603
3,KNFPTLPSKINSRH [YLL015W 63-76],151
4,KMTPSTPVRSISPI [YJR092W 851-864],2960
5,KRTPKIPEKDVKSD [YDR026C 223-236],187
6,KTVPQSPKKPLSLL [YOR058C 193-206],192
7,KYDPDNPNKDKLGT [YBR235W 52-65],266
8,KWEPSTPQRNGPIL [YCR102C 158-171],1620
9,KNLPLNPSKKLEGK [YDL027C 313-326],61.3
10,KSFPPPPLKPGQKT [YBR108W 84-97],229
11,KPKPPKPIKYHFED [YMR044W 286-299],124
12,KSKPKVPAKNPELE [YNL106C 1157-1170],210

# Further lines, results first:
row,"normalised SPOT signal, Boehringer light units (BLU); mean over the file's lines of this peptide",Binder
1,992,KSVPIPPRKNATLD [YJR113C 102-115]
2,15.7,KNSPLAPIKKNVEL [YLL021W 1085-1098]
3,236,KTKPTPPPKPSHLK [YNL020C 606-619]
4,133,KTKPSIPPKKVELN [YPR171W 354-367]
5,1820,KRPPTAPQRKISLP [YPR171W 469-482]
6,21700,KLPPRLPHRAAQRR [YIR018W 29-42]
7,95.4,KLRPDLPVKNFVVK [YFR030W 641-654]
8,3830,KNLPTIPIRLSGID [YGL085W 143-156]
9,404,KMFPFNPAKIKKDD [YLR115W 535-548]
10,320,KSSPWSPYKVEKVL [YBR156C 161-174]
